Measured values reported in publication PMC11667226 (Theranostics, 2025).
Like-named read-outs stand apart in the source and are kept apart here. Non-standard residues stand in square brackets, D forms with d. Residues, ends and D or L forms follow the SMILES beside them. *: point of attachment. X1 = CC1(C)C(=CC=CC=CC=CC2=[N+](CCCCCC(=O)*)c3ccc4ccccc4c3C2(C)C)N(CCCCS(=O)(=O)[O-])c2ccc3ccccc3c21; Cha = N[C@@H](CC1CCCCC1)C(=O)O

Experimental: ECGs were taken at baseline, 1 hr ± 15 min, and 44 hrs ± 6 h post-injection. Blood samples (including lever and kidney parameters) were sampled at baseline, 12 hrs ± 4 hrs, and 44 hrs ± 6 hrs post-injection. All laboratory analyses were performed by the Department of Biochemistry at Rigshospitalet. AE assessments were graded according to the National Cancer Institute “Common Terminology Criteria for Adverse Events (CTCAE)” version 5.0. There was no data monitoring committee in this trial.
[1] = FG001 36 mg i.v., n = 4, CTCAE v5.0

Structure (SMILES): CC(C)C[C@H](NC(=O)[C@H](Cc1ccc(O)cc1)NC(=O)[C@@H](CCCNC(=N)N)NC(=O)[C@@H](CO)NC(=O)[C@H](Cc1ccccc1)NC(=O)[C@H](CC1CCCCC1)NC(=O)[C@H](CC(=O)O)NC(=O)[C@H](CCC(=O)O)NC(=O)[C@H](CCC(=O)O)NC(=O)CCCCC[N+]1=C(C=CC=CC=CC=C2N(CCCCS(=O)(=O)[O-])c3ccc4ccccc4c3C2(C)C)C(C)(C)c2c1ccc1ccccc21)C(=O)N[C@@H](Cc1c[nH]c2ccccc12)C(=O)N[C@@H](CO)C(=O)O [FG001, ICG-Glu-Glu-AE105] (X1-EED[Cha]F[dS][dR]YLWS-OH; N-terminus and C-terminus assumed)
- TEAE Blood bilirubin increased: No. events (FG001 36 mg i.v., N=4): 4
- TEAE Blood bilirubin increased: No. subjects (%) (FG001 36 mg i.v., N=4): 4 (100.0%)
- TEAE Blood creatinine increased: No. events (FG001 36 mg i.v., N=4): 1
- TEAE Blood creatinine increased: No. subjects (%) (FG001 36 mg i.v., N=4): 1 (25.0%)
- TEAE Dysgeusia: No. events (FG001 36 mg i.v., N=4): 0
- TEAE Dysgeusia: No. subjects (%) (FG001 36 mg i.v., N=4): 0 (0.0%)
- TEAE GGT increased: No. events (FG001 36 mg i.v., N=4): 1
- TEAE GGT increased: No. subjects (%) (FG001 36 mg i.v., N=4): 1 (25.0%)
- TEAE Hypalbuminaemia: No. events (FG001 36 mg i.v., N=4): 1
- TEAE Hypalbuminaemia: No. subjects (%) (FG001 36 mg i.v., N=4): 1 (25.0%)
- TEAE Hyperglycaemia: No. events (FG001 36 mg i.v., N=4): 1
- TEAE Hyperglycaemia: No. subjects (%) (FG001 36 mg i.v., N=4): 1 (25.0%)
- TEAE Hypertension: No. events (FG001 36 mg i.v., N=4): 1
- TEAE Hypertension: No. subjects (%) (FG001 36 mg i.v., N=4): 1 (25.0%)
- TEAE Hyponatraemia: No. events (FG001 36 mg i.v., N=4): 0
- TEAE Hyponatraemia: No. subjects (%) (FG001 36 mg i.v., N=4): 0 (0.0%)
- TEAE Hypotension: No. events (FG001 36 mg i.v., N=4): 0
- TEAE Hypotension: No. subjects (%) (FG001 36 mg i.v., N=4): 0 (0.0%)
- TEAE Hypothermia: No. events (FG001 36 mg i.v., N=4): 2
- TEAE Hypothermia: No. subjects (%) (FG001 36 mg i.v., N=4): 1 (25.0%)
- TEAE Pneumonia: No. events (FG001 36 mg i.v., N=4): 0
- TEAE Pneumonia: No. subjects (%) (FG001 36 mg i.v., N=4): 0 (0.0%)
- TEAE SOC General disorders and administration site conditions: No. events (FG001 36 mg i.v., N=4): 2
- TEAE SOC General disorders and administration site conditions: No. subjects (%) (FG001 36 mg i.v., N=4): 1 (25.0%)
- TEAE SOC Infections and infestations: No. events (FG001 36 mg i.v., N=4): 0
- TEAE SOC Infections and infestations: No. subjects (%) (FG001 36 mg i.v., N=4): 0 (0.0%)
- TEAE SOC Investigations: No. events (FG001 36 mg i.v., N=4): 9
- TEAE SOC Investigations: No. subjects (%) (FG001 36 mg i.v., N=4): 4 (100.0%)
- TEAE SOC Metabolism and nutrition disorders: No. events (FG001 36 mg i.v., N=4): 2
- TEAE SOC Metabolism and nutrition disorders: No. subjects (%) (FG001 36 mg i.v., N=4): 1 (25.0%)
- TEAE SOC Nervous system disorders: No. events (FG001 36 mg i.v., N=4): 0
- TEAE SOC Nervous system disorders: No. subjects (%) (FG001 36 mg i.v., N=4): 0 (0.0%)
- TEAE SOC Vascular disorders: No. events (FG001 36 mg i.v., N=4): 1
- TEAE SOC Vascular disorders: No. subjects (%) (FG001 36 mg i.v., N=4): 1 (25.0%)
- FG001 related TEAEs: No. events (FG001 36 mg i.v., n = 4): 0
- FG001 related TEAEs: No. patients (%) (FG001 36 mg i.v., n = 4): 0 (0%)
- SAEs: No. events (FG001 36 mg i.v., n = 4): 0
- SAEs: No. patients (%) (FG001 36 mg i.v., n = 4): 0 (0%)
- TEAE: No. events (FG001 36 mg i.v., n = 4): 14
- TEAE: No. patients (%) (FG001 36 mg i.v., n = 4): 4 (100%)
- TEAE Mild (Grade 1): No. events [1]: 8
- TEAE Mild (Grade 1): No. patients (%) [1]: 1 (25.0%)
- TEAE Moderate (Grade 2): No. events [1]: 3
- TEAE Moderate (Grade 2): No. patients (%) [1]: 2 (50.0%)
- TEAE Severe (Grade 3): No. events [1]: 3
- TEAE Severe (Grade 3): No. patients (%) [1]: 1 (25.0%)
- TEAE Mild (Grade 1): No. events (all doses, N = 17, CTCAE v5.0): 24
- TEAE Mild (Grade 1): No. patients (%) (all doses, N = 17, CTCAE v5.0): 7 (41.2%)
- TEAE Moderate (Grade 2): No. patients (%) (all doses, N = 17, CTCAE v5.0): 8 (47.1%)
- TEAE Severe (Grade 3): No. patients (%) (all doses, N = 17, CTCAE v5.0): 1 (5.9%)
- FG001 related TEAEs: No. events (all doses, N=17): 0
- FG001 related TEAEs: No. patients (%) (all doses, N=17): 0 (0%)
- SAEs: No. events (all doses, N=17): 0
- SAEs: No. patients (%) (all doses, N=17): 0 (0%)
- TEAE ALT increased: No. events (all doses, N=17): 1
- TEAE ALT increased: No. subjects (%) (all doses, N=17): 1 (5.9%)
- TEAE AST increased: No. events (all doses, N=17): 3
- TEAE AST increased: No. subjects (%) (all doses, N=17): 3 (17.6%)
- TEAE Blood ALP increased: No. events (all doses, N=17): 1
- TEAE Blood ALP increased: No. subjects (%) (all doses, N=17): 1 (5.9%)
- TEAE Blood bilirubin increased: No. events (all doses, N=17): 7
- TEAE Blood bilirubin increased: No. subjects (%) (all doses, N=17): 7 (41.2%)
- TEAE Blood creatinine increased: No. events (all doses, N=17): 2
- TEAE Blood creatinine increased: No. subjects (%) (all doses, N=17): 2 (11.8%)
- TEAE Dysgeusia: No. events (all doses, N=17): 1
- TEAE GGT increased: No. events (all doses, N=17): 1
- TEAE GGT increased: No. subjects (%) (all doses, N=17): 1 (5.9%)
- TEAE Hypalbuminaemia: No. events (all doses, N=17): 10
- TEAE Hypalbuminaemia: No. subjects (%) (all doses, N=17): 10 (58.8%)
- TEAE Hyperglycaemia: No. events (all doses, N=17): 2
- TEAE Hyperglycaemia: No. subjects (%) (all doses, N=17): 2 (11.8%)
- TEAE Hypertension: No. events (all doses, N=17): 2
- TEAE Hypertension: No. subjects (%) (all doses, N=17): 2 (11.8%)
- TEAE Hyponatraemia: No. events (all doses, N=17): 1
- TEAE Hyponatraemia: No. subjects (%) (all doses, N=17): 1 (5.9%)
- TEAE Hypotension: No. events (all doses, N=17): 1
- TEAE Hypotension: No. subjects (%) (all doses, N=17): 1 (5.9%)
- TEAE Hypothermia: No. events (all doses, N=17): 3
- TEAE Pneumonia: No. events (all doses, N=17): 1
- TEAE Pneumonia: No. subjects (%) (all doses, N=17): 1 (5.9%)
- TEAE SOC General disorders and administration site conditions: No. events (all doses, N=17): 3
- TEAE SOC Infections and infestations: No. events (all doses, N=17): 1
- TEAE SOC Investigations: No. events (all doses, N=17): 15
- TEAE SOC Investigations: No. subjects (%) (all doses, N=17): 9 (52.9%)
- TEAE SOC Metabolism and nutrition disorders: No. events (all doses, N=17): 13
- TEAE SOC Metabolism and nutrition disorders: No. subjects (%) (all doses, N=17): 10 (58.8%)
- TEAE SOC Nervous system disorders: No. events (all doses, N=17): 1
- TEAE SOC Vascular disorders: No. events (all doses, N=17): 3
- TEAE SOC Vascular disorders: No. subjects (%) (all doses, N=17): 3 (17.6%)
- TEAE: No. events (all doses, N=17): 36
- TEAE: No. patients (%) (all doses, N=17): 16 (94.1%)
- TEAE Alanine aminotransferase increased, Grade 3: No. events (all doses, Table S1): 1
- TEAE Alkaline phosphatase increased, Grade 1: No. events (all doses, Table S1): 1
- TEAE Aspartate aminotransferase increased, Grade 1: No. events (all doses, Table S1): 2
- TEAE Aspartate aminotransferase increased, Grade 3: No. events (all doses, Table S1): 1
- TEAE Blood bilirubin increased, Grade 1: No. events (all doses, Table S1): 5
- TEAE Blood bilirubin increased, Grade 2: No. events (all doses, Table S1): 2
- TEAE Creatinine increased, Grade 1: No. events (all doses, Table S1): 2
- TEAE Dysgeusia (salty taste), Grade 1: No. events (all doses, Table S1): 1
- TEAE GGT increased, Grade 3: No. events (all doses, Table S1): 1
- TEAE Hyperglycemia, Grade 1: No. events (all doses, Table S1): 2
- TEAE Hypertension, Grade 2: No. events (all doses, Table S1): 2
- TEAE Hypoalbuminemia, Grade 1: No. events (all doses, Table S1): 6
- TEAE Hypoalbuminemia, Grade 2: No. events (all doses, Table S1): 4
- TEAE Hyponatremia, Grade 1: No. events (all doses, Table S1): 1
- TEAE Hypotension, Grade 1: No. events (all doses, Table S1): 1
- TEAE Hypothermia, Grade 1: No. events (all doses, Table S1): 3
- TEAE Pneumonia, Grade 2: No. events (all doses, Table S1): 1
- Findings related to FG001 administration at physical examinations (in vivo): No abnormal findings
